Experiment [1] addresses C. difficile toxin A from strain Pitt 07 (ribotype 078) (Clostridium difficile strain Pitt 07). Kind of experiment: cell-based or functional assay.
Experiment [2] concerns the target C. difficile toxin B from strain CCL678 (ribotype 027, BI/NAP1/027) (Clostridium difficile strain CCL678). In words: cell-based or functional assay.

With “comparator human anti-toxin A monoclonal antibody CDA-1”, in experiment [1], the EC50, neutralization of supernatant cytotoxicity on T-84 cells was over 100 nM.
On to “comparator human anti-toxin B monoclonal antibody CDB-1”, for which, in experiment [2], the EC50, neutralization of supernatant cytotoxicity on CHO-K1 cells was over 100 nM.

The record behind these values is US20130202618A1.
